The target in this assay is SARS-CoV-2 Omicron BA.2 spike RBD (UniProt P0DTC2). The experiment in a line: SPR. (Surface plasmon resonance follows binding to a sensor surface in real time, without labels.)

Consider three substances from article PMC11620640.

Usually Kd stands for the constant that tells how readily two partners part at equilibrium. A higher Kd goes with a looser complex.

“raccoon dog ACE2 (rdACE2), peptidase domain (PD), wild type (from UniProt B4XEP4) E38D” gave a Kd of 0.245 µM.
Under “raccoon dog ACE2 (rdACE2), peptidase domain (PD), wild type (from UniProt B4XEP4) L24Q” stands 0.283 µM.
On to “raccoon dog ACE2 (rdACE2), peptidase domain (PD), wild type (from UniProt B4XEP4) R353K”, for which the Kd worked out at 0.136 µM.
